Measurements taken from the supplement of paper PMC9112550, “Optimization of the antimicrobial peptide Bac7 by deep mutational scanning” (BMC Biology, 2022).

These sequences were tested on Escherichia coli TOP10 (assay: shrunken log2 fold change of peptide-encoding DNA abundance (4.5 h post-induction vs induction); higher = less antimicrobial activity (less host growth inhibition)). Settings: time post-induction: 4.5 h; library: site-saturation at positions 5, 18, 19, 20.
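Also: peptides expressed intracellularly from a pBAD plasmid library in pooled LB shake-flask culture, induced with 0.3% L-arabinose, DNA abundance read by NGS, three biological replicates, DESeq2 with apeglm shrinkage.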

Row | Sequence | shrunken log2 fold change
1 | RRIRDRPPRLPRPRPRPVSWPRP | 1.13
2 | RRIRDRPPRLPRPRPRPVTAPRP | 0.157
3 | RRIRDRPPRLPRPRPRPVVDPRP | 0.104
4 | RRIRDRPPRLPRPRPRPVWAPRP | 0.548
5 | RRIRDRPPRLPRPRPRPVWHPRP | 0.0277
6 | RRIRDRPPRLPRPRPRPVYDPRP | -0.434
7 | RRIRDRPPRLPRPRPRPWDFPRP | 0.238
8 | RRIRDRPPRLPRPRPRPWFDPRP | -0.15
9 | RRIRDRPPRLPRPRPRPWFFPRP | 0.673
10 | RRIRDRPPRLPRPRPRPWFQPRP | -0.0572
11 | RRIRDRPPRLPRPRPRPWFRPRP | -0.44
12 | RRIRDRPPRLPRPRPRPWFTPRP | -0.175
13 | RRIRDRPPRLPRPRPRPWGHPRP | 0.0208
14 | RRIRDRPPRLPRPRPRPWHHPRP | -0.179
15 | RRIRDRPPRLPRPRPRPWHIPRP | -0.058
16 | RRIRDRPPRLPRPRPRPWIDPRP | 0.151
17 | RRIRDRPPRLPRPRPRPWLPPRP | 0.0708
18 | RRIRDRPPRLPRPRPRPWMGPRP | -0.368
19 | RRIRDRPPRLPRPRPRPWNFPRP | 0.0173
20 | RRIRDRPPRLPRPRPRPWPQPRP | -0.121
21 | RRIRDRPPRLPRPRPRPWRDPRP | -0.0505
22 | RRIRDRPPRLPRPRPRPWRPPRP | 0.0967
23 | RRIRDRPPRLPRPRPRPWSIPRP | -0.105
24 | RRIRDRPPRLPRPRPRPWTFPRP | -0.22
25 | RRIRDRPPRLPRPRPRPYCKPRP | 0.0343

Row | Sequence | shrunken log2 fold change
26 | RRIRDRPPRLPRPRPRPYCNPRP | -0.137
27 | RRIRDRPPRLPRPRPRPYCSPRP | -0.335
28 | RRIRDRPPRLPRPRPRPYEGPRP | 0.00106
29 | RRIRDRPPRLPRPRPRPYEIPRP | -0.0176
30 | RRIRDRPPRLPRPRPRPYETPRP | -0.198
31 | RRIRDRPPRLPRPRPRPYFGPRP | -0.551
32 | RRIRDRPPRLPRPRPRPYFNPRP | -0.849
33 | RRIRDRPPRLPRPRPRPYFRPRP | -0.318
34 | RRIRDRPPRLPRPRPRPYGFPRP | -0.0405
35 | RRIRDRPPRLPRPRPRPYHRPRP | 0.0231
36 | RRIRDRPPRLPRPRPRPYIGPRP | -0.0691
37 | RRIRDRPPRLPRPRPRPYILPRP | -0.592
38 | RRIRDRPPRLPRPRPRPYITPRP | -0.879
39 | RRIRDRPPRLPRPRPRPYKCPRP | -0.00925
40 | RRIRDRPPRLPRPRPRPYKLPRP | -1.01
41 | RRIRDRPPRLPRPRPRPYLFPRP | 1.15
42 | RRIRDRPPRLPRPRPRPYLGPRP | -0.021
43 | RRIRDRPPRLPRPRPRPYMSPRP | -0.00753
44 | RRIRDRPPRLPRPRPRPYMYPRP | -0.194
45 | RRIRDRPPRLPRPRPRPYNFPRP | -0.0811
46 | RRIRDRPPRLPRPRPRPYNHPRP | -0.704
47 | RRIRDRPPRLPRPRPRPYNLPRP | -0.0574
48 | RRIRDRPPRLPRPRPRPYPQPRP | -0.582
49 | RRIRDRPPRLPRPRPRPYSCPRP | 0.0113
50 | RRIRDRPPRLPRPRPRPYSFPRP | -0.0868

Row | Sequence | shrunken log2 fold change
51 | RRIRDRPPRLPRPRPRPYTMPRP | -0.0014
52 | RRIRDRPPRLPRPRPRPYVLPRP | -0.347
53 | RRIRDRPPRLPRPRPRPYVNPRP | -1.59
54 | RRIRDRPPRLPRPRPRPYWVPRP | -0.129
55 | RRIRDRPPRLPRPRPRPYYTPRP | -0.817
56 | RRIRERPPRLPRPRPRPADYPRP | -0.379
57 | RRIRERPPRLPRPRPRPAEGPRP | -0.179
58 | RRIRERPPRLPRPRPRPAETPRP | 0.0123
59 | RRIRERPPRLPRPRPRPAFLPRP | -0.289
60 | RRIRERPPRLPRPRPRPAGWPRP | 0.555
61 | RRIRERPPRLPRPRPRPAKIPRP | 0.039
62 | RRIRERPPRLPRPRPRPALAPRP | 0.432
63 | RRIRERPPRLPRPRPRPAPPPRP | 0.422
64 | RRIRERPPRLPRPRPRPASKPRP | -0.12
65 | RRIRERPPRLPRPRPRPASYPRP | -0.0425
66 | RRIRERPPRLPRPRPRPAVKPRP | -0.0221
67 | RRIRERPPRLPRPRPRPCCNPRP | -0.0562
68 | RRIRERPPRLPRPRPRPCCRPRP | 0.0107
69 | RRIRERPPRLPRPRPRPCCVPRP | -0.743
70 | RRIRERPPRLPRPRPRPCCWPRP | 0.185
71 | RRIRERPPRLPRPRPRPCCYPRP | 0.00792
72 | RRIRERPPRLPRPRPRPCDGPRP | 0.142
73 | RRIRERPPRLPRPRPRPCDIPRP | -0.329
74 | RRIRERPPRLPRPRPRPCEAPRP | -0.041
75 | RRIRERPPRLPRPRPRPCEQPRP | -0.0101

Row | Sequence | shrunken log2 fold change
76 | RRIRERPPRLPRPRPRPCHIPRP | -0.439
77 | RRIRERPPRLPRPRPRPCHLPRP | -0.176
78 | RRIRERPPRLPRPRPRPCHRPRP | -0.02
79 | RRIRERPPRLPRPRPRPCIPPRP | -0.109
80 | RRIRERPPRLPRPRPRPCKWPRP | 0.0276
81 | RRIRERPPRLPRPRPRPCLPPRP | -0.259
82 | RRIRERPPRLPRPRPRPCMAPRP | -0.336
83 | RRIRERPPRLPRPRPRPCMPPRP | 0.0888
84 | RRIRERPPRLPRPRPRPCMVPRP | -1.08
85 | RRIRERPPRLPRPRPRPCNWPRP | -0.0685
86 | RRIRERPPRLPRPRPRPCPSPRP | -0.115
87 | RRIRERPPRLPRPRPRPCRNPRP | -0.269
88 | RRIRERPPRLPRPRPRPCRWPRP | -0.205
89 | RRIRERPPRLPRPRPRPCTAPRP | -0.337
90 | RRIRERPPRLPRPRPRPCTEPRP | -0.196
91 | RRIRERPPRLPRPRPRPCTFPRP | -0.129
92 | RRIRERPPRLPRPRPRPCVYPRP | -0.33
93 | RRIRERPPRLPRPRPRPCWIPRP | -0.594
94 | RRIRERPPRLPRPRPRPCYLPRP | -1.07
95 | RRIRERPPRLPRPRPRPDAMPRP | -0.0916
96 | RRIRERPPRLPRPRPRPDCAPRP | 0.115
97 | RRIRERPPRLPRPRPRPDFCPRP | -0.196
98 | RRIRERPPRLPRPRPRPDFSPRP | 0.0617
99 | RRIRERPPRLPRPRPRPDGMPRP | -0.0237
100 | RRIRERPPRLPRPRPRPDHMPRP | -0.0199

Row | Sequence | shrunken log2 fold change
101 | RRIRERPPRLPRPRPRPDIFPRP | 0.0405
102 | RRIRERPPRLPRPRPRPDIKPRP | -0.248
103 | RRIRERPPRLPRPRPRPDITPRP | 3.39
104 | RRIRERPPRLPRPRPRPDKRPRP | -0.023
105 | RRIRERPPRLPRPRPRPDLWPRP | -0.141
106 | RRIRERPPRLPRPRPRPDNNPRP | -0.237
107 | RRIRERPPRLPRPRPRPDNPPRP | -0.0894
108 | RRIRERPPRLPRPRPRPDNRPRP | -0.0217
109 | RRIRERPPRLPRPRPRPDNVPRP | 0.0262
110 | RRIRERPPRLPRPRPRPDPQPRP | -0.102
111 | RRIRERPPRLPRPRPRPDRFPRP | -0.01
112 | RRIRERPPRLPRPRPRPDRWPRP | -0.0318
113 | RRIRERPPRLPRPRPRPDSSPRP | -0.509
114 | RRIRERPPRLPRPRPRPDSYPRP | -0.00865
115 | RRIRERPPRLPRPRPRPDTFPRP | -0.00141
116 | RRIRERPPRLPRPRPRPDTMPRP | -0.336
117 | RRIRERPPRLPRPRPRPDVYPRP | -0.301
118 | RRIRERPPRLPRPRPRPEAWPRP | 0.0366
119 | RRIRERPPRLPRPRPRPECCPRP | 0.066
120 | RRIRERPPRLPRPRPRPECSPRP | -0.0948
121 | RRIRERPPRLPRPRPRPEEKPRP | -0.0137
122 | RRIRERPPRLPRPRPRPEFAPRP | 0.0144
123 | RRIRERPPRLPRPRPRPEIYPRP | 0.0872
124 | RRIRERPPRLPRPRPRPEKIPRP | 0.0141
125 | RRIRERPPRLPRPRPRPEMHPRP | 0.0332

Row | Sequence | shrunken log2 fold change
126 | RRIRERPPRLPRPRPRPEMIPRP | -0.0286
127 | RRIRERPPRLPRPRPRPEMTPRP | -0.0236
128 | RRIRERPPRLPRPRPRPESGPRP | -0.0112
129 | RRIRERPPRLPRPRPRPESQPRP | -0.101
130 | RRIRERPPRLPRPRPRPESYPRP | 0.0161
131 | RRIRERPPRLPRPRPRPETCPRP | -0.127
132 | RRIRERPPRLPRPRPRPETKPRP | -0.231
133 | RRIRERPPRLPRPRPRPEVTPRP | -0.0794
134 | RRIRERPPRLPRPRPRPEWPPRP | 0.102
135 | RRIRERPPRLPRPRPRPEYQPRP | 0.00497
136 | RRIRERPPRLPRPRPRPFCAPRP | 0.548
137 | RRIRERPPRLPRPRPRPFEFPRP | -0.629
138 | RRIRERPPRLPRPRPRPFERPRP | 0.00782
139 | RRIRERPPRLPRPRPRPFESPRP | 0.00731
140 | RRIRERPPRLPRPRPRPFFVPRP | -0.292
141 | RRIRERPPRLPRPRPRPFIPPRP | -0.481
142 | RRIRERPPRLPRPRPRPFIVPRP | -0.218
143 | RRIRERPPRLPRPRPRPFLFPRP | -0.286
144 | RRIRERPPRLPRPRPRPFMCPRP | -0.158
145 | RRIRERPPRLPRPRPRPFMRPRP | 0.154
146 | RRIRERPPRLPRPRPRPFNEPRP | -0.226
147 | RRIRERPPRLPRPRPRPFPDPRP | -0.00133
148 | RRIRERPPRLPRPRPRPFSMPRP | -0.366
149 | RRIRERPPRLPRPRPRPFTKPRP | -0.0421
150 | RRIRERPPRLPRPRPRPFTQPRP | -0.299
